The values below come from patent publication US20050043510A1, “Affinity purification system using troponin molecules as affinity ligands” (priority 2003, published 2005).

Data set [1] has as its target rabbit skeletal muscle troponin C (Oryctolagus cuniculus, UniProt P02586). The note with it: in the presence of calcium; Hanson Pierce et al. (1998); cited from earlier work.
Data set [2] has as its target bovine serum albumin (Bos taurus, UniProt P02769). Particulars: in the presence of calcium; Hanson Pierce et al. (1998); cited from earlier work.
The target in data set [3] is calmodulin (Homo sapiens, UniProt P0DP23). The note with it: in the presence of calcium; Hanson Pierce et al. (1998); cited from earlier work.
For data set [4], the system named is troponin C-tagged C-terminal truncated version of La/SSB (TnC-LaΔC).

rabbit skeletal muscle troponin C, sequence (P02586 whole entry): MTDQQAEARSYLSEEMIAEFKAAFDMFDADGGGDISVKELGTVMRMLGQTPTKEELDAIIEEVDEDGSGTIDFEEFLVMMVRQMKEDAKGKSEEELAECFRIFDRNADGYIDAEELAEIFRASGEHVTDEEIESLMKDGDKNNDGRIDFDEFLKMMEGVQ
bovine serum albumin, sequence (P02769 25-607): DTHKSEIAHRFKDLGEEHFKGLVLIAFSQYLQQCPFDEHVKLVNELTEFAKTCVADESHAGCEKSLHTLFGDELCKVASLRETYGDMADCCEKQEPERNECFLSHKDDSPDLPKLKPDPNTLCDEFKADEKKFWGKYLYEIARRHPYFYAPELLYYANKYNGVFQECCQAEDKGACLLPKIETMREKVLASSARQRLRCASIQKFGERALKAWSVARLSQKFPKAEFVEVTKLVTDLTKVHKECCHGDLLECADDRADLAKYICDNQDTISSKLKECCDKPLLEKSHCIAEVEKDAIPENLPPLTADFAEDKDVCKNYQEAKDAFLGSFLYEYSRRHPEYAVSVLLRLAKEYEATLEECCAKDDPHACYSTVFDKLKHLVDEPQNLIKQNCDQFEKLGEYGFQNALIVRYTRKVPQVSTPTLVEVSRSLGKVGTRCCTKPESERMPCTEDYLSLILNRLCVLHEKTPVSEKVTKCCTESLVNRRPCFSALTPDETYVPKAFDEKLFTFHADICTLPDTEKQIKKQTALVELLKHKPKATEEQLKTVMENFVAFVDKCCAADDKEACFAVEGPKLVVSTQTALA

Turning to “SRLDYLKSSLLHLGSR (SEQ ID NO:1) [Troponin C binding peptide, previously described (Hanson Pierce et al. 1998)]”, the Calcium dependent binding result in data set [1] was “demonstrated”; in data set [2], “not”; in data set [3], “not”.
For “biotinylated thrombin (Thrombin Cleavage Capture Kit, Novagen)”, the “thrombin proteolytic cleavage (SDS-PAGE)” value in data set [4] is on record as “apparent complete cleavage when 0.1 units of thrombin was used”.
